{
  "source": "paper PMC5873253",
  "target": "OsMADS57 (Oryza sativa) (UniProt Q6Z6W2)",
  "sequence (Q6Z6W2 whole entry)": "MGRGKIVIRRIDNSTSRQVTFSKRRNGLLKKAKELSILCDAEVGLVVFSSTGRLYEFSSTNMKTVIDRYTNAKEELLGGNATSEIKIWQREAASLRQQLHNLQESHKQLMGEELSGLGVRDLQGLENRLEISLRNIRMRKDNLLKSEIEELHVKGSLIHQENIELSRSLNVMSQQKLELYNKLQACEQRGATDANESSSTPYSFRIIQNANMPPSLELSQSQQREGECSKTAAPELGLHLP",
  "experiment": "SPR",
  "conditions": "SPR (Biacore 3000, SA chip): 10 mM Hepes pH 7.9, 50 mM KCl, 1 mM EDTA, 0.5 mM DTT, 5 mM MgCl2, 10% glycerol, 0.005% P20, 25 or 4 C, protein 0.15-4.80 uM, EMSA: …",
  "note": "pKd: −log10 of the molar value.",
  "data": [
    {"sequence": "TTAACTTTAAAAAGTTAGTTAACTTTAAAAAGTTAGTTAACTTTAAAAAGTTAG (double strand) [WRKY94S2]", "values": [
      {"measurement": "pKd", "setting": "25 C", "value": 5.92},
      {"measurement": "pKd", "value": 6.15}
    ]}
  ]
}
